Where a chain is given by its changes, count along the chain named. In names and notes the source's numbering stands.
Key:
[1] = biological target: the molecule itself; experiment: crystal structure; Aer2 1–172 mutant proteins; L44H by vapor diffusion, 1.5–1.7 M MgSO4, 0.1 M Tris pH 8.5, room temperature, space group P3(2)12; V33G in conditions and space group of the WT; molecular replacement
[2] = biological target: the molecule itself; experiment: pulsed dipolar ESR spectroscopy (PDS, double electron electron resonance); inter-subunit distances between MTSSL spin labels on one engineered Cys per subunit; 17.35 GHz; protein 25–50 µM

B1: Aer2 1–172 L44H (domain or fragment)
chain: MGLFNAHAVAQQRADRIATLLQSFADGQLDTAVGEAPAPGYERHYDSLRALQRQLREQRAELQQVESLEAGLAEMSRQHEAGWIDQTIPAERLEGRAARIAKGVNELVAAHIAVKMKVVSVVTAYGQGNFEPLMDRLPGKKAQITEAIDGVRERLRGAAEATSAQLATAAYN
notes: Aer2, soluble receptor of Pseudomonas aeruginosa, residues 1-172 (HAMP1, HAMP2, HAMP3); also called L44H HAMP1 mutant; source: purified as previously described for the WT protein [7], induction temperature reduced to 18°C
B1: binds [1].

B2: Aer2 1–172 V33G (domain or fragment)
chain: B1 chain with V33G, H44L
notes: Aer2, soluble receptor of Pseudomonas aeruginosa, residues 1-172 (HAMP1, HAMP2, HAMP3); also called HR2 mutant of HAMP1; source: purified as previously described for the WT protein [7], induction temperature reduced to 18°C
B2: binds [1].

B3: H1C AS1 (Aer2 1–172 D26C, MTSSL spin-labeled) (domain or fragment)
chain: B1 chain with D26C, H44L
modifications: MTSSL spin label on the engineered Cys at 26
notes: Aer2, soluble receptor of Pseudomonas aeruginosa, residues 1-172; source: Aer2 1–172 mutant proteins purified as previously described for the WT protein [7]; spin-labeled with MTSSL
B3: binds [2].

B4: H2C AS1 (Aer2 1–172 A81C, MTSSL spin-labeled) (domain or fragment)
chain: B1 chain with H44L, A81C
modifications: MTSSL spin label on the engineered Cys at 81
notes: as for B3
B4: binds [2].
